Patent publication US20250115677A1, “Anti-CEA Antibody Drug Conjugates and Methods of Use” (BeiGene Switzerland GmbH, priority 2022, published 2025)
Numbering of substitutions follows the chain as printed. In names and notes the source's numbering stands.

Legend:
[1] = target: T1, human CEA on cells (MKN45, LOVO, NCI-H2122, LS174T, CT26/CEA) (human, UniProt P06731 35-685); assay: flow cytometry on MKN45 cells, Alexa Fluor 647 anti-human IgG Fc
T1 construct: Full-length human CEA, endogenous on tumour cell lines or transduced; also called native CEA on living cells; huCEA surface protein
T1 sequence: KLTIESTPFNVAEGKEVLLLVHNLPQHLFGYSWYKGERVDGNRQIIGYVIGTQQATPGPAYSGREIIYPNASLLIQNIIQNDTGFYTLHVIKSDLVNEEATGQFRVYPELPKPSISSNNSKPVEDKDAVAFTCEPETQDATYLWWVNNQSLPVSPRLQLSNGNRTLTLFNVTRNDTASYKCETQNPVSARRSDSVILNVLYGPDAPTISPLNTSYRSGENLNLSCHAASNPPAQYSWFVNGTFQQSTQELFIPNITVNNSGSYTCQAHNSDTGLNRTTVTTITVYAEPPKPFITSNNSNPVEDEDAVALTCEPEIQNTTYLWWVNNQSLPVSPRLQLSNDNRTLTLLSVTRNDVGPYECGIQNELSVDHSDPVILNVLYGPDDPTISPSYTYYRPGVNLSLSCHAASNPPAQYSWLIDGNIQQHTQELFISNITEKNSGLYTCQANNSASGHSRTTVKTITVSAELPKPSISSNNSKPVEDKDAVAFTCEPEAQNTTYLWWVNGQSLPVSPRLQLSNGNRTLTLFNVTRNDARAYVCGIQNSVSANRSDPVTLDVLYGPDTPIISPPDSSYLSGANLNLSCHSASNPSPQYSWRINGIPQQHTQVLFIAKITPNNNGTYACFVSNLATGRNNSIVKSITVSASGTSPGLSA
Procedure: For flow cytometry, CEA-expressing MKN45 cells (10^5 cells/well) were incubated with various concentrations of purified affinity-matured antibodies, followed by binding with Alexa Fluor-647-labeled anti-hu IgG Fc antibody (Cat. No. 409320, BioLegend, USA). Cell fluorescence was quantified using a flow cytometer (Guava easyCyte™ 8HT, Merck-Millipore, USA).

[2] = target: T1, human CEA on cells (MKN45, LOVO, …); assay: flow cytometry on MKN45 cells
[3] = target: T2, recombinant soluble human CEA (extracellular domain, AA 1-687 of huCEA, C-terminal 6xHis) (human, UniProt P06731 35-687); assay: SPR; kinetics on huCEA, IgG format
T2 construct: also called sCEA; soluble CEA
T2 sequence: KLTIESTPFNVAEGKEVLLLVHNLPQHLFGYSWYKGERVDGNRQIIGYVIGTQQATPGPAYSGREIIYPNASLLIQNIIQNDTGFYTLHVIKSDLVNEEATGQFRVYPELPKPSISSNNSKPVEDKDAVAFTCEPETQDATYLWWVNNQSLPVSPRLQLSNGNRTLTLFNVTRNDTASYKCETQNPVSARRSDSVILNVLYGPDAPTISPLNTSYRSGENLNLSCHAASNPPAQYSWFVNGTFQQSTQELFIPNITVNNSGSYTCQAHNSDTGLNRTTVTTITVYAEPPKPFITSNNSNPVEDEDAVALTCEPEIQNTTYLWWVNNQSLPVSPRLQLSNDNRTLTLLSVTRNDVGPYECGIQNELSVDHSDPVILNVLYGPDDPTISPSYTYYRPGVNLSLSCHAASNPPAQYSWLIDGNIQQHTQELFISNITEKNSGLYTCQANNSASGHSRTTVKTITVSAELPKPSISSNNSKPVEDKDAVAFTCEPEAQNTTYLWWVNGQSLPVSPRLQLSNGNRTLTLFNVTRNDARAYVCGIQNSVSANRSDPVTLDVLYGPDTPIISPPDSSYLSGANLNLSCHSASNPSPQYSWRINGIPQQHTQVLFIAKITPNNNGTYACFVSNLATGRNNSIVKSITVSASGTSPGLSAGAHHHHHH

[4] = target: T3, chimeric construct (CHIM) (human); assay: SPR; binding to CHIM
T3 construct: CEACAM6 AA 1-273 joined to the membrane-peripheral region containing domain B3 of CEA (AA 596-687), C-terminal 6xHis; also called chimeric CEA
T3 chain: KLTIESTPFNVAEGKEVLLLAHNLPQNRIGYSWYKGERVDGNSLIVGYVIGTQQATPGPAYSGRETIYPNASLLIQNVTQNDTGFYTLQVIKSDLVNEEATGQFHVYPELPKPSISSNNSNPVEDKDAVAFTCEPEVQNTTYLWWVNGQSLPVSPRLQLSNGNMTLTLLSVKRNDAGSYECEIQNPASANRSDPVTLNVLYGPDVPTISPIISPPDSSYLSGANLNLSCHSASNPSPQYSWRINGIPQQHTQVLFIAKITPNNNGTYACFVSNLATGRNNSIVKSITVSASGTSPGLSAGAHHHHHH

[5] = target: T1, human CEA on cells (MKN45, LOVO, …); assay: cell-based or functional assay
CEA = target: T4, CEA (Homo sapiens, UniProt P06731); assay: SPR affinity measurement of BGA6710 variants; format: binding; details: BGA6710 variants in IgG format
T4 construct: 6xHis (C)
T4 sequence (P06731 with tags, fused parts or gaps limits assumed): T2 sequence
Text: To further improve the biochemical/biophysical properties, optimization of BGA6710 was made by introducing substitutions in CDR and framework regions (Table 13). The large, hydrophobic residues were chosen and changed to polar residues, except for K13 and Q53, which are selected based on observed differences among human VH germlines. The considerations include amino acid compositions, heat stability (Tm), surface hydrophobicity and isoelectronic points (pIs) while maintaining functional activities. The variants were expressed in Fab format by cloning into the vector pCANTAB-5E as described in Example 6. The Fab-containing supernatants were then screened by ELISA and SPR analysis for CEA binding.
Thus, the BGA6710 variants in IgG format with single identified mutation or combinations were expressed and purified as described in Example 8.

CHIM [6] = target: T5, CHIM (Homo sapiens, UniProt P06731, A174T/A211G/A239V/A261S/A267P/C12H/D173N/E253A/E283V/F203L/F272R/F277P/F63I/H123Q/H61N/H9C/I100T/I112V/I113T/I13V/I230T/I80V/INS244IISP/K155N/K214E/L18V/L245P/L62R/N182G/N204S/N246D/N288K/P266S/P287A/Q16K/Q78L/R139H/R17E/R198M/R224N/R250L/R77S/S228P/S280H/T171V/T206K/T210A/T217I/T247S/T276I/V221A/V273I/V291P/V55A/W11L); assay: SPR affinity comparison of affinity matured humanized BGA7592 variants on CHIM; format: binding; details: Table 11, SPR to CHIM
T5 construct: CEACAM6 N-terminal part (fusion partner); 6xHis (C); made in house; host or cells: HEK293-based mammalian cell expression system
T5 sequence (P06731 with tags, fused parts or gaps H9C/W11L/C12H/I13V/Q16K/R17E/L18V/V55A/H61N/L62R/F63I/R77S/Q78L/I80V/I100T/I112V/I113T/H123Q/R139H/K155N/T171V/D173N/A174T/N182G/R198M/F203L/N204S/T206K/T210A/A211G/K214E/T217I/V221A/R224N/S228P/I230T/A239V/INS244IISP/L245P/N246D/T247S/R250L/E253A/A261S/P266S/A267P/F272R/V273I/T276I/F277P/S280H/E283V/P287A/N288K/V291P): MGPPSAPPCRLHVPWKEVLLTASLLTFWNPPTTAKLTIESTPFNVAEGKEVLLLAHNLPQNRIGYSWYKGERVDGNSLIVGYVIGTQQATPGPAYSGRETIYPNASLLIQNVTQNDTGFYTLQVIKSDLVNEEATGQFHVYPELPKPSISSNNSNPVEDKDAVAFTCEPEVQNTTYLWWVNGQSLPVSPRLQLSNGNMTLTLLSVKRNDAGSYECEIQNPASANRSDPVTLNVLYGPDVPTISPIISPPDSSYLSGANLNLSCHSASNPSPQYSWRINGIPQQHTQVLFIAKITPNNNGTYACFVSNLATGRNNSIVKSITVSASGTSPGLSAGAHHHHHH

[7] = target: T6, huCEA surface protein (LOVO cells) (Homo sapiens, UniProt P06731); assay: Flow cytometry binding of affinity matured humanized BGA7592 variants to LOVO cells
T6 construct: host or cells: LOVO
T6 sequence (P06731 35-676): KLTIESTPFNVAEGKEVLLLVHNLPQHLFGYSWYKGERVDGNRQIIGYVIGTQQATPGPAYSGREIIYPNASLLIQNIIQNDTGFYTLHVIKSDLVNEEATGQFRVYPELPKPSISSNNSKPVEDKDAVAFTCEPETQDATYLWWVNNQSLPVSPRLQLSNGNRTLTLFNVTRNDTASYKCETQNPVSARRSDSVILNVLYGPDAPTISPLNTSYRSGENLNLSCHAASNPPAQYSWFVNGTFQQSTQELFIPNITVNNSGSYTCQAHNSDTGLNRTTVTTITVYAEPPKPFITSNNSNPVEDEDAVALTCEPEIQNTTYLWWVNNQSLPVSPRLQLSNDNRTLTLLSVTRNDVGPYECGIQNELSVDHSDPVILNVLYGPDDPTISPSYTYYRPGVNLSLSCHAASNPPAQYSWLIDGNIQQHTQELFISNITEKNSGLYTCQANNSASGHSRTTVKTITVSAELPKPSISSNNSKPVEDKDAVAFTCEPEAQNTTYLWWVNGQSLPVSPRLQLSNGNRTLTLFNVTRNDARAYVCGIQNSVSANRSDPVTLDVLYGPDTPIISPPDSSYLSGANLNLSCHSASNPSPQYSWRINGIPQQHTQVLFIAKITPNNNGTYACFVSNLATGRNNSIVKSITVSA
Procedure: (§1) Affinity comparison of BGA7592-1F (BGA5366) and other affinity matured clones was made by SPR assay (Table 9) using BIAcore™ T-200 (GE Life Sciences) and flow cytometry (FIG. 7). For this experiment, anti-human IgG (Fc) antibody was immobilized on an activated CM5 biosensor chip (Cat. No. BR100839, GE Life Sciences). Anti-CEA antibodies were flowed over the chip surface and captured by anti-human Fab antibody. Then a serial dilution (1.37 nM to 333 nM) of CHIM was flowed over the chip surface and changes in surface plasmon resonance signals were analyzed to calculate the association rates (kon) and dissociation rates (koff) by using the one-to-one Langmuir binding model (BIA Evaluation Software, GE Life Sciences). For flow cytometry, CEA-expressing cells (10′ cells/well) were incubated with various concentrations of purified affinity-matured antibodies, followed by binding with Alexa Fluro-647-labeled anti-hu IgG Fc antibody (Cat. No. 409320, BioLegend, USA). Cell fluorescence was quantified using a flow cytometer (Guava easyCyte™ 8HT, Merck-Millipore, USA). The equilibrium dissociation constant (KD) was calculated as the ratio koff/kon.

CHIM [8] = target: T5, CHIM; assay: SPR affinity comparison of affinity matured humanized BGA7592 variants on CHIM; format: binding; details: Table 9, SPR on CHIM
Procedure: as §1

B1: BGA6710 (antibody, human IgG1, V domains shown)
VH: QVQLVQSGAEVKKPGASVKVSCKASGYIFTSYYLHWVRQAPGQGLEWIGYINPQTGYTSYAQKFQGRVTMTRDTSTSTVYMELSSLRSEDTAVYYCAREYGNYNYPLDYWGQGTLVTVSS
VL: DIQMTQSPSSLSASVGDRVTITCRASENQYGYLAWYQQKPGKVPKLLIYNYKNLVEGVPSRFSGSGSGTDFTLTISSLQPEDVATYYCQHHLGTPYTFGQGTKVEIK
notes: BGA2433 with W33Y (VH) and T51Y (VL); wild-type human IgG1 format
- EC50 (read off the curve) [1]: ~0.5 µg/mL
- EC50 [2]: 0.49 µg/mL
- Top [2]: 919
- Kd [3]: 1.49 nM
- koff [3]: 0.000169 s⁻¹
- kon [3]: 113000 M⁻¹ s⁻¹
- Kd [4]: 15.1 nM
- koff [4]: 0.000475 s⁻¹
- kon [4]: 31500 M⁻¹ s⁻¹
- ADCC (LDH release), NK92MI/CD16V effector cells with CT26 cells expressing CEA, EC50 [5]: ~0.0067 µg/mL

B2: L92E: BGA6710 variant in IgG format, L92E in the light chain, "slightly reduces the binding affinity to CEA" (antibody, V domains shown)
VH: B1 VH
VL: B1 VL with L92E
- Kinetics (huCEA) ka (CEA): 41700 M⁻¹ s⁻¹
- Kinetics (huCEA) kd (CEA): 0.000188 s⁻¹

B3: BGA7592-1F-ph-M (BGA2433): affinity matured clone of BGA7592-1F, "(SEQ ID NO:96)", "improved affinities to huCEA surface protein"; template for further engineering (protein)
chain: B1 VL with Y51T
modifications: Synthetic: BGA7592-1F-ph-M VL
notes: template for further engineering
- Ka (CHIM [6]): 19700 M⁻¹ s⁻¹
- Rmax (CHIM [6]): 97.2 RU
- affinities to huCEA surface protein [7]: improved affinities
- Ka (CHIM [8]): 2500 M⁻¹ s⁻¹
- Rmax (CHIM [8]): 224 RU
